Experimental data reported in publication doi:10.1101/2025.08.21.671500.

B1: BLI 40-mer (dsDNA)
DNA 1: GTGTCTCCTGCTCTGTCAGCAGGGCACTGTACTTGCTGAT
DNA 2: ATCAGCAAGTACAGTGCCCTGCTGACAGAGCAGGAGACAC
B2: 2C (two canonical motifs separated by 3 nt) (dsDNA)
DNA 1: CCGCCGTATTTACTGAGTAAATAGCCGCC
DNA 2: GGCGGCTATTTACTCAGTAAATACGGCGG
B3: PAL (extended palindromic motif) (dsDNA)
DNA 1: CCGCCGTAAGTAAATATTTACTTAGCCGCC
DNA 2: GGCGGCTAAGTAAATATTTACTTACGGCGG
B4: C (canonical FOXA motif) (dsDNA)
DNA 1: CCGCCGCCGTGTTTACTTTGCCGCCGCC
DNA 2: GGCGGCGGCAAAGTAAACACGGCGGCGG

Assays:
FOXA1 forkhead domain [1] = biological target: T1, FOXA1 forkhead domain (UniProt P55317 169-260); experiment: BLI
T1 sequence: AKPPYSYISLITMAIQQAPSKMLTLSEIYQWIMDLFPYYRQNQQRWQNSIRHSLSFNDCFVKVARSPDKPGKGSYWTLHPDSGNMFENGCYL

FOXA2 forkhead domain [2] = biological target: T2, FOXA2 forkhead domain (UniProt Q9Y261 159-252); experiment: BLI
T2 sequence: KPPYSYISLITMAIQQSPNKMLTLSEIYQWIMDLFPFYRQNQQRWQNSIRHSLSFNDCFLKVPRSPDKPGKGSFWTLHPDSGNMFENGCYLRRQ

FOXA2 forkhead domain [3] = biological target: T2, FOXA2 forkhead domain; experiment: EMSA
[4] = biological target: T3, FOXA1 forkhead domain;FOXA2 forkhead domain, Twin-Strep-tagged (human?;human?, UniProt P55317;Q9Y261 169-260;159-252, |); experiment: EMSA
T3 sequence 1: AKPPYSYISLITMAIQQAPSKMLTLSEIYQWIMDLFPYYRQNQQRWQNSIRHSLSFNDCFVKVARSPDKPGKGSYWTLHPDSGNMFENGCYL
T3 sequence 2: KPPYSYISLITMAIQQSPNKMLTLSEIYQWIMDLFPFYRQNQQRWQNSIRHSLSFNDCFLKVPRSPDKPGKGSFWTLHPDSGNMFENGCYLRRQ

FOXA1 forkhead domain [5] = biological target: T1, FOXA1 forkhead domain; experiment: EMSA

Row | Binder | binding result (FOXA1 forkhead domain [1]) | binding result (FOXA2 forkhead domain [2]) | binding result (FOXA2 forkhead domain [3]) | binding result [4] | binding result (FOXA1 forkhead domain [5])
1 | B1 | binds | binds |  |  | 
2 | B2 |  |  | binds | binds | binds
3 | B3 |  |  | binds | binds | binds
4 | B4 |  |  | binds |  | 
